Measured values taken from the domain aggregation screens of Martell et al. (2025).

Assay: soluble fraction after stress (log2 fold change); higher = more stays soluble; pooled small domains, quantitative proteomics
Settings: stress: 50 degC
Outline: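 Quantitative proteomics served as the high-throughput read-out for pooled custom libraries of small protein domains. Each was stressed at 50°C. Aggregation propensity is expressed as the base-two log fold change in soluble protein after stress. A higher value means a larger share of the protein remains in solution.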

In order of rising “soluble fraction (log2)” value:
1. HMFSVVDKITLQEELKKLSKKEQLLIQLRYYDELNQEEIAKIFHVSQVQISRMEKKIIEKLKKQF  -3.58
2. HMATFTPYLVRITASVLNIRKGPGTTYAVTGQIKDRGVYTIVEQKGNWGRLKSGAGWISLSYTKK  -3.12
3. HMSNMWVWSKLSGIQWMDAWEDRFHGNPNTVITRLKTNKTVRVEVYTETEQEALDIKKLFGGSIRKLV  -2.96
4. HMQISGIHLYERRITKDDEWAERKLSEISLAGSLVILILRNEHVVIPNGETVLKENDLLYISD  -2.93
5. HMALRFMAYGRINGTNVHFRTGASASTASLGRYSRGTEFGVYDKIGGWYRVRLLSTGQEGYVYSRYLTLTG  -2.67
6. HMASVLTGMLGRVTGELAPKGIVMVGNETWTAVSEDDSVIRIGEPVEVRSVEGLILTVFRRID  -2.53
7. HMTRHIQVNDSIASTPIEDVYFSTRTYNALLNNGISVIGDLSKYTHDDLYASFQGLGRAGVLEIEAYLRQD  -1.53
8. HMLPYKGTVAVSLAVLHKAVGVGTADMLKAVGTLRQGTEVTVTGRNGPFAQLKNGLWMKESFLE  -1.04
9. HMGTAESIRLFLSSGLIKGVGEALAGRIVDTFGTDTFDIIENHPELLAGVKGISHRLAMSIYESFSQHIGV  -1.03
10. HMKNIFDWLKQINYHKQPADSFTEKDWELFNSYMVHRFMSMNREFIEVVNYVQEMPPQEKILIYNIYREF  -1.02
11. HMVRRSERLHALTESLRRSGNRGRTAEQLATEFEVSVRTIKRDLVALEASGLPLWSRPGPGGGYGLLS  -1.02
12. HMAFKNGLLQTSKKVTLVRKVDGVTMRFDSLRAASVFLGRNKGYLSNVIKNGRTLDNYEIVVGE  -0.991
13. HMDYEVPEELQQKFEEFPRLKEAFYQLTPGRQHQYLYYFSQAKRSQTRYNRIDKYMNAILQGKGMK  -0.991
14. HMHPKTPDELLALMSEEQRGQIEQLAKLVLMAVSYSGASYYDAVTTMYPRMSEERRRIITHVLNTASP  -0.652
15. HMAEWLFDARKIPDEVMNYLRRIAVQAIEEKHYSPELVADLLGISRSSIYDWLNWYRNGGEEDLDTRKA  -0.613
16. HMGKSPLDALSAREKEVLTYITRGVSINDIAAVLYLSPKTVSTHKTNLMQKLGIENNADLILFGVNHGLND  -0.513
17. HMGEYGVLWYLLTKKEAVSAGELKEKLHVVPGRMTDILTALEKKGLIIRQKNKTDKRVVDVVLTKEGEKEA  -0.471
18. HMESGLPLPRFVSLGADEVNLRTGPGLRYPVAWVFVRKALPVEIVAEFEQWRRVRDFEGAEGWVHKAML  -0.36
19. HMTTHERHEIIELLRQVGDPMRPKEISEALGKPSGAIRFLLSKLTEEGAIKKTGYGQYTYIP  -0.359
20. HMSLNNAHNTIFPRIIELMEMKQLENVLLIGGGIIPRKDIESLESSGVTKLYGPGTPVKETIEFITNWVK  -0.268
21. HMESPSGGHRIALAFDQGTARAVDATYARLTGAGYEGRTKPWDAPWGQRYATVFDPDGNSVDLFAALE  -0.263
22. HMYMTTADADMWKYVNTGRYNNDIQLMEEYKNRSMDSFEVITPEQQRKYNKAAMNLNSYYAWADPSYKPNP  -0.257
23. HMGKIINMSKVKQVLRLHTQGVSNRRIALDLGLYKGTVNSYIRKIKDHGYDIAEVLKLDDPVLESKLFA  -0.227
24. HMASIGTATVTADNLRLRSEAGTGAETLTMAPKGAEVTVEEDAGDGWYKVTYGDTEGYMSGEWLKITLA  -0.209
25. HMQIAGLDDIDNRIIDLLLKNGRASYSEIGAAVGLSRTAAKNRIRALEASGIIRGYQAILDPQA  -0.205
26. HMRRISLEDWQLIESLIRRDWSPEQISLWLKKYKKIRVSHEWIYQYILKDKSKAGDLHTHLRSR  -0.174
27. HMVNEALDEFFVGLKNLYESATGKPAIAGAHFDGEPKTDFEKLMYLGYQIIRPAQAYPSALKAYERAIARS  -0.173
28. HMSSEMATLRSIVDNKQAEKVHGMMVDMFTASAMVQVYDKVNDENQAKMREMLKTQKGFQRMADFALSKI  -0.172
29. HMTNIDRLIGQTAIVKETINNKKEQGVVRINGMDWTARTEEIDEVILKGKPVEILDIQGIKLIVRKK  -0.153
30. HMDVLTARENEVLQLLAKGMSNKEIASVLVITEKTVKAHVSSILSKLNLSDRTQAALYAVKNGI  -0.151
31. HMLERKPVLVASRDLPALAVIGKDDLSVELLRTAPVGSYDRPEALLGKRVWVAVPAGSILSAATLEP  -0.103
32. HMAPQVKIPNLVDVSQRQAEAILNSYGLKVGHLIYKPDLAKDAVLGFMFNGRSLKAGDELAKGSSIDLILG  -0.097
33. HMGSEEMLGALGVVERATDDGDWWIAVHGEHWRARSAQALVPGDRVRVARIDGLTLTVTPIA  -0.0957
34. HMLNDMYAVMEIRGQGGELIAKLINQDGSPFYVKKGTTLQSGHVIDEITTTYVRAEKAGAKDYLYF  -0.0846
35. HMKFSVEEQFKKSFPKNTYETFSETSLKGVYEVYNGKQVYYYLPVNDVLLLGSIVTKDGKNLTQESNSKK  -0.0811
36. HMSAVIGTATVTTSSGSLNLRESASLYSRVIRTIPRGATVDVLSRDTSWSRVRYAGSEGYVLNQYLTFQT  -0.0809
37. HMLTWNQLGLITKPVVFLDGTGYYARLFEAFEHMISTGFVKENYRAMMNRATSVEEAVRIASSPAPKVD  -0.0676
38. HMTSGPAWPALSAQQRSVLAPLQRDWHTIDAARKAKWLEVAARFPSMPAEERQRVQERMAEWA  -0.0518
39. HMKQTFGAMLAALRKEKGMTQLELAEQMGVTDKAVSKWERDLSFPDVTSLPRLAEILEVSVDELMQ  -0.0444
40. HMRININNASARQIADALPGVGLKTARDIKDFQTTLSGERYTRLDQLHSIKRVDWDEIFKADLVRV  -0.0293
41. HMERPSLDQVLAHAKALGIAPARFVAYADGRWGTGWRLSPHGRARAWEELDRHRNDPLGYRDKLDVALQSG  -0.0254
42. HMSKSIELMNEIKKYIEEYYLQYRQSPSTTKIAEAVGIARGTAYKYLVEMSERNMIEYDGQEISTEVTRKY  -0.0213
43. HMTSVAYVIDRINKIQNVYSELEALGLKDEFEKILSNIEDLSKKDIREIKTLLKTKGVIKNLDDLNVKL  -0.0059
44. HMSAQDLIVKTDATQVEARVLEISPEQIRYKRFSNPDGPTYVLPVDAVDYIRYANGETDSFR  -0.0039
45. HMIVSEYIIIGGDKKEYGPVSMGEVGEWVQGGRANGDSKIKKVGTEEWGRLRDFPEFSAYLS  -0.00369
46. HMSTMTDAQRHLFANKLSQLPEMGKYSHGTESYQQFAVRIAEMLQTPKKFKELYPYLQKVGFKA  0.00319
47. HMSLQNTMANFAGGVLVLFLKPFKAGDYIVTKDGEGTVASIGLVYTTLLTIENKRIVIPNSSISNSPITN  0.0055
48. HMTGIESVKPSSDFTVEGNRIVAGDAEVEVYDLAGRKVNNNNLTTGVYIAKIAGSAESVKVFV  0.0109
49. HMTDSISLTLNGDPRPFRAGATVADLVRDIGLDPAKVAVERNLEIVPRSTLENVHLADGDVLEIVHFV  0.0403
50. HMLSTRERMSSLMAQLQVQQFMPFHRLFTISEGRMGVIVTFLAMMELVKENLIKLIQAQEYGPIHVSLG  0.0428
51. HMAITLEVAKKHLEMWLEAESEVAINQSYTIGGKSFTRANLAEIRKQIEYWSNKVAELENLA  0.0438
52. HMTGESIPFSKFLSEVDSGRVINVEIQGNNISGLLSDGNKFKTYSPNYPNLVEILSEKEVSIVATPLE  0.0525
53. HMDFSENEPVTVRVLSILKNNTIRIAVKGAVLQAQTALSQDIREGAFLLMRVHITDNTVVLTPY  0.0533
54. HMARRSRADAVRNREALIDAAKAAFTEAGPDVSLEEIARRAGVGIGTLYRHFPTRDAVIEAVYR  0.0559
55. HMKKPKTVLSEEQKEFIINQAQDGVSAYDIARILFPSVNVTNLSKEVIDVAEFIRDTDIKLLADSE  0.0694
56. HMRPLTPLEKLTPDADGKYYHIVQSGETLSWIAKLYETTAEKLQAWNNLFSSDIFPNQKLLLQVTPP  0.0722
57. HMKLQIQNIEIDKKISELAEGVSAEKLPFLAKLIDRSKLLNDKGEINEDSVKAAIEEVVKAFPDFK  0.081
58. HMGAATQADIARVQELLNRLGYDAGSPDGLMGPRTRDAILEYQLTEGLETTGTVTRETLASLEARL  0.0823
59. HMSTTGIVKWFNEEKGFGFITQDQGGADVFVHYRAIASEGFKTLAEGQKVSFEVEQGQKGLQAANVQA  0.0843
60. HMAPPPLAGAREALREQIRRGSLSARRGFDAYADALGLPAGTRGAHPIFAALQRLDYPQALRLLDQEPT  0.0894
61. HMGMYAEERHQAIASLARKHGRVSVAELAERFNVTSETIRRDLDSLARRGLLTRVHGGAVPVE  0.0963
62. HMETIGENIKTYRQKKGYTQEEVANRLHVTRQTISKWEKNYSIPDAEVLVKLADVLEVQTSQLLGV  0.102
63. HMGTVVKRNALVHAWTEFNGGRASTKLLALGPGKVGEWIELENPQSGRKLRGEVQVDGSVRLG  0.11
64. HMSDESALIAAIEKAIAAQPETAEKVRNGHLPAAGALIGSVMKETKGQADAARVRELLLGLLGQ  0.139
65. HMELEDTYTKNLDASLARLDEYQASKGLTDEQVDEVINSLIADAENIIMGVFTPELIDSKLKAMNYDQDV  0.156
66. HMEIYEEDRTKVVNDLMDQILNRQITMDAAATKFINIRNSLGTTITKEDEQNLEMLRGLIFDKT  0.16
67. HMPTELVYTVPASAEGLRLDHFLVQHVPHMTRALATELTGAGGVRVNGRRAKKGDRLPSGAEVRLER  0.178
68. HMPASTSIPYSDFISRVESGDVQEAKIGESAITGTYKDGSQFKTVKPPTLDTNLMPTLIQNKVNVVGVEP  0.18
69. HMQEDKVRKLTEMGFAEDQAREALRKHDWDETMALNSL  0.199
70. HMENSPLTHREAEVMRLMSEGKSNRAISEHLVISEKTVKNHVSSILQKMSVDDRTQAVLQAIKNGWVD  0.23
71. HMHSILDDIEGIGPARRKALMRHYMNLDAIKSATVEELAAVPSMNEKSAKAVHNFFHQQKKD  0.242
72. HMETYEFNITDKEQTGMRVDKLLPELNSDWSRNQIQDWIKAGLVVANDKVVKSNYKVKLNDHIVVTEKEV  0.26
73. HMEALTPREREVLTLMGQGRSNAEIATLLSIAPRTAKVHVQNILSKLGATNRTEAVSLAVRQGLIS  0.301
74. HMVFSNLGSRGEEVRQIQTKLKELGYLQGNVDGIYGNQTKQAVTAFQRDHGLSADGIAGEKTLAALGIG  0.315
75. HMPIDNTLLSRITSLGVSTTEAEKLISKHGEEALKANLEVVEERLSKPNLPLLDSPAAYLKTALKNG  0.318
76. HMAERLQARIDAPGVRLDKALAETFPTLSRARLQALLADGAVTRDGQTVSNGSAKAQPGLYVVALPPVA  0.381
